Data taken from patent US20110059097A1 (UNIVERSITY HEALTH NETWORK, published 2011).

Molecular target: T1, murine MFAP4 (microfibrillar-associated protein-4) on mouse DNT cells (murine, UniProt Q9D1H9 23-257)
T1 sequence: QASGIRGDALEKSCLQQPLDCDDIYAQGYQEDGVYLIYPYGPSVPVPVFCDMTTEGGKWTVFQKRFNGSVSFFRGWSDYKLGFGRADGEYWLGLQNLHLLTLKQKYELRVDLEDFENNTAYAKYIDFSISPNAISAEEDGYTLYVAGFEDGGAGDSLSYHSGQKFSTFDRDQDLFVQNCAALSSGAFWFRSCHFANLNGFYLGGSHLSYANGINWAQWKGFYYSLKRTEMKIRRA
Test: flow cytometry on mouse DNT cell clones (target later identified as MFAP4)

B1: G1 monoclonal antibody (antibody, V domains shown)
VH: EVKLVESGGGLVQPGRSLKLSCAASGFPFSNYGMAWVRQAPTKGLAWVATISYDGRSTYYRDSVKGRFTISRNNAKSTLYLQMDSLRSEDTATYYCVRHELPEDHWGQGVMVTVSS
VL: DIVMTQSPFSLAVSEGEMVTINCKSGQSLLSSGNQKNYLAWYQQKPGQSPKLLIYYSSTRQSGVPDRFIGSGSGTDFTLTISDVQAEDLADYYCLQHYSSPFTFGSGTKLEIK
notes: Hybridoma monoclonal antibody raised against cell surface molecules of tumor-reactive mouse DNT cells; also called G1 mAb; mAb (clone: G1)
B1: binds.
